Data taken from publication PMC7294093, “S-Glutathionylation of human inducible Hsp70 reveals a regulatory mechanism involving the C-terminal α-helical lid” (The Journal of Biological Chemistry, 2020).
Values joined by “and” are separate entries in the source; they are usually repeats but may differ in a detail not shown here. Equal values may be shown once. Ends that are not written are not given here. * marks the point of attachment. FITC = O=C1OC2(c3ccc(O)cc3Oc3cc(O)ccc32)c2ccc(NC(=S)*)cc21

Assays:
Conditions in all cases: both partners purified
[1] = biological target: hHsp70-CSSAC (hHsp70 C267S/C306S/C574A) (human, UniProt P0DMV8 1-641, C267S | C306S | C574A); assay: fluorescence polarisation; kinetic time course at RT; 20 nM FAR with 10 μM hHsp70 or mutant, apo or with ADP/ATP (1 mM; 0.5 mM ADP in Fig. 7C); 1 mM diamide with 1 mM GSH added at 60 min, 10 mM DTT at 120 min
Chain of hHsp70-CSSAC (hHsp70 C267S/C306S/C574A) (P0DMV8 whole entry C267S/C306S/C574A): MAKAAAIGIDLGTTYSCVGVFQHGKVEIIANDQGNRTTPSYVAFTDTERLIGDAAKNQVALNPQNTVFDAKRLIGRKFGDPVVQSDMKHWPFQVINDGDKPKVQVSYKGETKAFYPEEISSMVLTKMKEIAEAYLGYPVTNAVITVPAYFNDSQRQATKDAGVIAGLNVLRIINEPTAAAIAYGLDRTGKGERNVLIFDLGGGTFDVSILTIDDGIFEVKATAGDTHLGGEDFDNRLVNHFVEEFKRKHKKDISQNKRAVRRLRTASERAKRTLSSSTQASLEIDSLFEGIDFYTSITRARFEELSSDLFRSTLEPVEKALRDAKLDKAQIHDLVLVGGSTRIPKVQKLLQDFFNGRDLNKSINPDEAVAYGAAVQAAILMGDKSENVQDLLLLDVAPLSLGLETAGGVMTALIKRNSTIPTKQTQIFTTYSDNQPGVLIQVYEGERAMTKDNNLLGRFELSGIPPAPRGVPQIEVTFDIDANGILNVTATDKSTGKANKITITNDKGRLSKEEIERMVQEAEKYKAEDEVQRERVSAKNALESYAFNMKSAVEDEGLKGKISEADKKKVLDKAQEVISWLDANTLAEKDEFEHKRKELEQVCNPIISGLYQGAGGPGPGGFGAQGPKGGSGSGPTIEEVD

[2] = biological target: hHsp70-CSSCA (hHsp70 C267S/C306S/C603A) (human, UniProt P0DMV8 1-641, C267S | C306S | C603A); assay: as above
Chain of hHsp70-CSSCA (hHsp70 C267S/C306S/C603A) (P0DMV8 whole entry C267S/C306S/C603A): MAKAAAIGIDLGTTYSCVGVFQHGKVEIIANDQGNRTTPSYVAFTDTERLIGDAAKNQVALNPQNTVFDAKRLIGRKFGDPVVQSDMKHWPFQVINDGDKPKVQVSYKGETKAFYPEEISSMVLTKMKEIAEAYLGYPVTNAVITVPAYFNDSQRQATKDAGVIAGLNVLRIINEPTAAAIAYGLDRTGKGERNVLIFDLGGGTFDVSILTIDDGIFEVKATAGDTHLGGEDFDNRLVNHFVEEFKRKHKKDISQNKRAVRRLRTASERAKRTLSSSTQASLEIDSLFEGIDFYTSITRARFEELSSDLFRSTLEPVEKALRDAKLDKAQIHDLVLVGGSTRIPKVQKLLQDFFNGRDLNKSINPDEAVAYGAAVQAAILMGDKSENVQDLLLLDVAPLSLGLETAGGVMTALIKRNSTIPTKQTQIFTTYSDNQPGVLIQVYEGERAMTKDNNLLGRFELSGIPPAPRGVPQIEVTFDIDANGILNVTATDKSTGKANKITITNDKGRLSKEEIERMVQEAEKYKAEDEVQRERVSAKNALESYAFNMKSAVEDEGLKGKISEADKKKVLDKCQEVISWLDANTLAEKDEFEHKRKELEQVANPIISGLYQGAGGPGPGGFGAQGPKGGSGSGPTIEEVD

[3] = biological target: hHsp70 T204A (binds but does not hydrolyze ATP) (human, UniProt P0DMV8 1-641, T204A); assay: as above
Chain of hHsp70 T204A (binds but does not hydrolyze ATP) (P0DMV8 whole entry T204A): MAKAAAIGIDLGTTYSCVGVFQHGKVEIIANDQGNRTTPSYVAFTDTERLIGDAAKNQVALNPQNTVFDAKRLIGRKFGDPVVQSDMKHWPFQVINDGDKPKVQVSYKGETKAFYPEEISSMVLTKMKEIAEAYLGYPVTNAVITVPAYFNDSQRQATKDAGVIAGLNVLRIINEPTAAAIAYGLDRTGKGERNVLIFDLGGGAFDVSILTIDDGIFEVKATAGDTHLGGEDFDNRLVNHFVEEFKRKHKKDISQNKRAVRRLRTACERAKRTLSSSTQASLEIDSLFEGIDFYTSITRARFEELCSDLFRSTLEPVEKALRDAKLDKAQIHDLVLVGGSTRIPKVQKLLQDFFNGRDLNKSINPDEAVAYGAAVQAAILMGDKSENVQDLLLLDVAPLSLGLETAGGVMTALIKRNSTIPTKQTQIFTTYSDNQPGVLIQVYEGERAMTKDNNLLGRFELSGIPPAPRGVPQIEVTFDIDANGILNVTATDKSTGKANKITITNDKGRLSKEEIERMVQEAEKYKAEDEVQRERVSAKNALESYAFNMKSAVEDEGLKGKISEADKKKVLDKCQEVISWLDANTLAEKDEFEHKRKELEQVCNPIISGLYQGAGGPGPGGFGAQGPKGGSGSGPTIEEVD

[4] = biological target: hHsp70-CSSSS (hHsp70 C267S/C306S/C574S/C603S) (human, UniProt P0DMV8 1-641, C267S | C306S | C574S | C603S); assay: fluorescence polarisation; steady state; 20 nM FAR with increasing hHsp70 or mutant; apo (no nucleotide); Buffer B; RT, 60 min; single site binding model
Chain of hHsp70-CSSSS (hHsp70 C267S/C306S/C574S/C603S) (P0DMV8 whole entry C267S/C306S/C574S/C603S, the tested form may be a part): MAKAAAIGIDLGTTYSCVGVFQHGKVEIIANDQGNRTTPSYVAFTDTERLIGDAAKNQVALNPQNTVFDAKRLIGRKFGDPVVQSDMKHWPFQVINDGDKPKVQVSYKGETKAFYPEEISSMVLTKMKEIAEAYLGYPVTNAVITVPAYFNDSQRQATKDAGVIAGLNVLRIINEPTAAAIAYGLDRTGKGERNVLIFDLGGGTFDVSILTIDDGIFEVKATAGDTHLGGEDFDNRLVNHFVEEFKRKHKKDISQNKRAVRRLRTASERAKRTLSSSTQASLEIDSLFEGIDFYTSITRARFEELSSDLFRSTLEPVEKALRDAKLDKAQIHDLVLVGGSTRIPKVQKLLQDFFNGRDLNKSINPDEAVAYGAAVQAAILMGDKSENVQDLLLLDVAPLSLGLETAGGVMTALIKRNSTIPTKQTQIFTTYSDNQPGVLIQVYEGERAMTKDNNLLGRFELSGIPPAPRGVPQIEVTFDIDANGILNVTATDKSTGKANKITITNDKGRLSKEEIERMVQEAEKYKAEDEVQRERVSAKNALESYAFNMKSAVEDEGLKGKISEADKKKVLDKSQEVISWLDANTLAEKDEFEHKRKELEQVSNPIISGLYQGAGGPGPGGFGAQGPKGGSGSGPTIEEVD

[5] = biological target: T1, WT hHsp70 (human HspA1A), full-length (residues 1–641) (human, UniProt P0DMV8 1-641); assay: fluorescence polarisation; steady state; 20 nM FAR with increasing hHsp70 (control, glutathionylated or deglutathionylated); 0.5 mM ADP in Buffer B (50 mM Tris-HCl pH 7.5, 100 mM KCl, 5 mM MgCl2); RT, 60 min; single site binding model
T1 construct: The deglutathionylated sample (glutathionylated, then 10 mM DTT) carries no modification and is written as this molecule; the label in the row tells which sample it was; also called HspA1A/B; untreated control (-C); source: monomeric peak collected
T1 sequence (P0DMV8 whole entry, the tested form may be a part): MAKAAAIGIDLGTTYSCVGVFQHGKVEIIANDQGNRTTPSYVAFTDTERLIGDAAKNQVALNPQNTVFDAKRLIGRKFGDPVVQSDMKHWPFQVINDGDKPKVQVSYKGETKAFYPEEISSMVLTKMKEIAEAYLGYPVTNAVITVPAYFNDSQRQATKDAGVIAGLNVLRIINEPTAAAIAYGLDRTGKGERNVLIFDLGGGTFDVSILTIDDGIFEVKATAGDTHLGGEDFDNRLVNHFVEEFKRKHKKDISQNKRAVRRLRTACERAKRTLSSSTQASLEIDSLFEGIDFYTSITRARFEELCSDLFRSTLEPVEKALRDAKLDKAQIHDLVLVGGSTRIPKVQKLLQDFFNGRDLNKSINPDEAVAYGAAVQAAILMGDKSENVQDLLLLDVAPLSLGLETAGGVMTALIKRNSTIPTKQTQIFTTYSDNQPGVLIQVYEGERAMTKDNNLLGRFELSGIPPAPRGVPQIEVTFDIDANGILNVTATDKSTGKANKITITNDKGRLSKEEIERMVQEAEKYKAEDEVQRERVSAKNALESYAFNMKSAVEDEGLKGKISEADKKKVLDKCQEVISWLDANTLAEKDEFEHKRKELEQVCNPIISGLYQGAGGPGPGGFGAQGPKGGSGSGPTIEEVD

[6] = biological target: hHsp70-CSSAS (hHsp70 C267S/C306S/C574A/C603S) (human, UniProt P0DMV8 1-641, C267S | C306S | C574A | C603S); assay: fluorescence polarisation; steady state; 20 nM FAR with increasing hHsp70 or mutant; apo (no nucleotide); Buffer B; RT, 60 min; single site binding model
Chain of hHsp70-CSSAS (hHsp70 C267S/C306S/C574A/C603S) (P0DMV8 whole entry C267S/C306S/C574A/C603S): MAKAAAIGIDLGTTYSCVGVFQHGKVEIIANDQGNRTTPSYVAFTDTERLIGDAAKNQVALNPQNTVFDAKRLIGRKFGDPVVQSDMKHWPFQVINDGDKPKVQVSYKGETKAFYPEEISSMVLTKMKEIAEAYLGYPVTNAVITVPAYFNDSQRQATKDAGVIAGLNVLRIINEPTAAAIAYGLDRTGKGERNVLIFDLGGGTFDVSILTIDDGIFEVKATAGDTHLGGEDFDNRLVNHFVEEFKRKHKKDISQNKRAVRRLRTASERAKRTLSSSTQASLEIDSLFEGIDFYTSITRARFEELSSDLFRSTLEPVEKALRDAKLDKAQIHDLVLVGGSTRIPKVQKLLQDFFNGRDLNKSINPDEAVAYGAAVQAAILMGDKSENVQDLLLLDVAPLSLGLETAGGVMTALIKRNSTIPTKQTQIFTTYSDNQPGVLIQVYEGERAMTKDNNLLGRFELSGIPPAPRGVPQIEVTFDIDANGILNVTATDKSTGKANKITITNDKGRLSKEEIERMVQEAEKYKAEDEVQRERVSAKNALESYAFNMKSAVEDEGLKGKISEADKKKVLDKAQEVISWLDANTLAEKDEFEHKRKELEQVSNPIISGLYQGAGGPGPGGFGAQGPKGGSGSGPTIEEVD

[7] = biological target: hHsp70-CSSAA (hHsp70 C267S/C306S/C574A/C603A) (human, UniProt P0DMV8 1-641, C267S | C306S | C574A | C603A); assay: as above
Chain of hHsp70-CSSAA (hHsp70 C267S/C306S/C574A/C603A) (P0DMV8 whole entry C267S/C306S/C574A/C603A): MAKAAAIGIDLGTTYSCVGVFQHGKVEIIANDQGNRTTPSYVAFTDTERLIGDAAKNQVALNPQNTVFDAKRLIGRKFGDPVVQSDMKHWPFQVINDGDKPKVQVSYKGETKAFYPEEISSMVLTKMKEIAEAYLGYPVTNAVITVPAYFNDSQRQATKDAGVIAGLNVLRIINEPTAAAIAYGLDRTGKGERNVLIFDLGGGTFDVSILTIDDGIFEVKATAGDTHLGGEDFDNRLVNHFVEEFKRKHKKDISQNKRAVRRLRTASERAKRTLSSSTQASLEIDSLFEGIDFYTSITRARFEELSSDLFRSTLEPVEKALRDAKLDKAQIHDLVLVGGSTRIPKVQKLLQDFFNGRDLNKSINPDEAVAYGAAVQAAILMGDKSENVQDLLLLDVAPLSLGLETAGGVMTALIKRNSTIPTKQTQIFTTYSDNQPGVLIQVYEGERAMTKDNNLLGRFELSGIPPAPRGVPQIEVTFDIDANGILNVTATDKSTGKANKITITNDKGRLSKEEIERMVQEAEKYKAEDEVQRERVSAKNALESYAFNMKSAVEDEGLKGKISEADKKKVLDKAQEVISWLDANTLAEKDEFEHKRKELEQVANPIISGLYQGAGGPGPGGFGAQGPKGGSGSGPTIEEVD

[8] = biological target: hHsp70-CSSCC (hHsp70 C267S/C306S) (human, UniProt P0DMV8 1-641, C267S | C306S); assay: as above
[9] = biological target: T1, WT hHsp70 (human HspA1A), full-length …; assay: as above

binding result [1]: binds | binding result [2]: binds | binding result [3]: binds | binding result [4]: binds | Kd [5]: 1070 nM and 1200 nM | Kd [6]: 1440 ± 540 nM | Kd [7]: 1190 ± 210 nM | Kd [8]: 1350 ± 230 nM | Kd [9]: 1120 ± 120 nM
Binder: {FITC}-ALLLSAPRR (fluorescently labeled peptide substrate) [FITC-labeled ALLLSAPRR (FAR) peptide]
